11 sequences from the DeepSol protein solubility set can be followed below.

The nature of the data set: soluble on expression in E. coli; label from the status in PepcDB or PDB records.
On to “MSDKVQTMASAIYRELETMIKVHGEDGVKTLMPLVVNVLEALDLAYLERDEQTAELEMLKEDNEQLQTQYEREKALRKQTEQKYIEIEDTLIGQNKELDKKIESLESIMRMLELKAKNATDHASRLEEREVEQKLEFDRLHERYNTLLRTHVDHMERTKYLMGSEKFELMQNMPLPNMQLRNKMGMAASVDASSIRGVSDLISAHMTQSTTMDVNLANHITNEDWQDEFSSDIEPSPRDIPQSSADALTSPITTKEPTPKREAASPKQSEEEEADETTSVDPKENNDLLGADLTGNLVDPAEFASAVNDTFIGMGREVENLIKENSELLDMKNALNIVKNDLINQVDELNSENMILRDENLSRQMVSEKMQEQITKHEEEIKTLKQKLMEKENEQEEDDVPMAMRKRFTRSEMQRVLMDRNAYKEKLMELEESIKWTEMQRAKKMQQQQQNVNQKKSGGIWEFFSSLLGDSVTPPASSRGNRASSSRGKMTRSVEYIDPDMISERRAAERREQYKLVREHVKKEDGRIEAYGWSLPNVEAEVSSVPIPVCCRPLLDNEPSLKIWCATGVVLRGGRDERGQWIVGDPIYFAPASMKKTKTSNHRPELEDEIKRARNLDARESELDEWQSSSLVWVVSSNQGKSLIAVLDANNPNNIIETFPACDSHLLCIQAVSGVMEGEPEMNEEQSKKYLSGGGKIKDLPEGLDGTDLGACEWVELRKMEDSEDGVPTYCSNDMKPSPKRTRDFSISEVAPVDSSAPVKEDPLPPPANRPGGRAALPPHIRDAMSKYDGVSGQMSGALPTVWMGGQNQYIYIHSAVTAWKQCLRRIKMPDAVLSIVHYKSRIFAALANGTIAIFHRNKHGEWSDEGYHSLRVGSATSSVRSLCLVSTNIWATYKNCVVVLDAESLQIVKVFAAHPRKDSQVRNMQWVGAGVWLSIRLDSTLRLYHAHTYEHLQDVDIEPYVTKMLGTSKLDFSYMRTTALLVSNRRLWIGTGTGVIISVPFSGQLEKKIETKDSKRPAGPGGLVRVYGATSENATNDEKTNDDFIPYCNLAHAQLSFHGHKDSVKFFLGVPGASKNGEDESAEVTLRRMLIMSGGDGYIDFRIGEENEPELTGQSIRPRDMSHLIIWEVDAELPILSK”, for which the “soluble on expression in E. coli” value was “not soluble”.

Consider “MSDLETVAKFLAESVIASTAKTSERNLRQLETQDGFGLTLLHVIASTNLPLSTRLAGALFFKNFIKRKWVDENGNHLLPANNVELIKKEIVPLMISLPNNLQVQIGEAISSIADSDFPDRWPTLLSDLASRLSNDDMVTNKGVLTVAHSIFKRWRPLFRSDELFLEIKLVLDVFTAPFLNLLKTVDEQITANENNKASLNILFDVLLVLIKLYYDFNCQDIPEFFEDNIQVGMGIFHKYLSYSNPLLEDPDETEHASVLIKVKSSIQELVQLYTTRYEDVFGPMINEFIQITWNLLTSISNQPKYDILVSKSLSFLTAVTRIPKYFEIFNNESAMNNITEQIILPNVTLREEDVELFEDDPIEYIRRDLEGSDTDTRRRACTDFLKELKEKNEVLVTNIFLAHMKGFVDQYMSDPSKNWKFKDLYIYLFTALAINGNITNAGVSSTNNLLNVVDFFTKEIAPDLTSNNIPHIILRVDAIKYIYTFRNQLTKAQLIELMPILATFLQTDEYVVYTYAAITIEKILTIRESNTSPAFIFHKEDISNSTEILLKNLIALILKHGSSPEKLAENEFLMRSIFRVLQTSEDSIQPLFPQLLAQFIEIVTIMAKNPSNPRFTHYTFESIGAILNYTQRQNLPLLVDSMMPTFLTVFSEDIQEFIPYVFQIIAFVVEQSATIPESIKPLAQPLLAPNVWELKGNIPAVTRLLKSFIKTDSSIFPDLVPVLGIFQRLIASKAYEVHGFDLLEHIMLLIDMNRLRPYIKQIAVLLLQRLQNSKTERYVKKLTVFFGLISNKLGSDFLIHFIDEVQDGLFQQIWGNFIITTLPTIGNLLDRKIALIGVLNMVINGQFFQSKYPTLISSTMNSIIETASSQSIANLKNDYVDLDNLEEISTFGSHFSKLVSISEKPFDPLPEIDVNNGVRLYVAEALNKYNAISGNTFLNTILPQLTQENQVKLNQLLVGNRSHHHHHH”, for which the “soluble on expression in E. coli” value was “soluble”.

“MSDLKYTVTADVLNVRSGAGTGHSVISKVKQGQVLQVIGQENGWFKVTVNGQTGYVSGDFVTTGGKTGTTVQQGTGTYTVNVSSLNVRTGPSTSHTVLGSVNKGKTVQVVSEVQDWFKINFNGGTGYVSKDFVTKGGSALEHHHHHH”: the “soluble on expression in E. coli” value is recorded as “soluble”.

Regarding “MSDLVSYHLDDGVATLTLNNGKVNAISPDVIIAFNAALDQAEKDRAIVIVTGQPGILSGGYDLKVMTSSAEAAINLVAQGSTLARRMLSHPFPIIVACPGHAVAKGAFLLLSADYRIGVAGPFSIGLNEVQIGMTMHHAGIELARDRLRKSAFNRSVINAEMFDPEGAMAAGFLDKVVSVEELQGAALAVAAQLKKI”, the “soluble on expression in E. coli” value is “not soluble”.

Consider “MSDPRAPRLCVLIDADNVPANYAEAIFEEIAALGEASVRRIYGDWSAMRLNAWAKKVAALGLVADQQFSNTKGKNASDIGLVISAMDFLHSGLFDGFVLVSSDSDFTRLAARIREQGLDVYGIGEKKTPEAFRMACKRFIYVENLGSDEPPAREPRPADEPQQPPAQRGREKEEPMKAIPLIAAAMRAIDPEGEWYSLGQIGQFITQANPDFDTRTYGSAKLSDLIKKISRFEVKPGPGGQLLARDIALEHHHHHH”, for which the “soluble on expression in E. coli” value was “not soluble”.

As for “MSDQIADARLVPLGAILTRMSTVVDMPETRGHLISAITTASDPGEILYLSSRADFSEGGSIRGGVPIIAPWFAKNLGHDELQHGWARRVEWETIPTNGGIDARTSHDDWDLRLGTQVLPHGFAMMLKARNASPLRRDFQSAFHPYFRVADVRTTTVTVGDQEFRFDGTAVDQAVPLPEWTPLVIKDSQRTITVTYQGADHAVVWNPGSELAAQMTDVGEGEWTEFVCVEPALLGDHAQGISVPPWDWVEIGMTVKVTPAQ”, the “soluble on expression in E. coli” value is “not soluble”.

With “MSDQLEASIKNILEQKTLKWIFVGGKGGVGKTTCSCSLAAQLSKVRERVLLISTDPAHNISDAFSQKFTKTPTLVEGFKNLFAMEIDSNPNGEGVEMGNIEEMLQNAAQNEGGSGGFSMGKDFLQSFAGGLPGIDEAMSFGEMIKLIDSLDFDVVVFDTAPTGHTLRLLQFPTLLEKVFTKILSLQGMFGPMMNQFGGMFGMGGGSMNEMIEKMTTTLESVKKMNAQFKDPNCTTFVCVCIAEFLSLYETERLIQELSKQGIDTHNIIVNQLLFPDTDANGTVSCRKCASRQAIQSKYLTDIDELYEDFHVVKLPLLEAEVRGGPAILQFSERMVDPEANKN”, the “soluble on expression in E. coli” value was “not soluble”.

In the case of “MSDSASGYEYVYYDRQVGAVQKSPNLMNDPKGALFYTLDSVFGDPGDTTGWILYNDEMPADANRSNNATLGHTKGVIAFDIASSSALWLLHSWPKYASPSVPGVPTPLYGQTFLCLSLDLATAGKLAAQMALHQQPQVYLPRTGGLDHTSPLYALTQPLNASAPGDSDSLDFKTRGGVPFKVIAKNRKWGKDFWNDLVGPTLKADMYVETWIRGKIPPVLDSDGVHKTYDIKFIDLRKLGAPWAWPETQDHAKWGITTTDNWVCVGDINRMVTQEKRGGGTIAFQDPKLWKALCETDLIIPPPGKTDAQARAMIRKTHEPAELEHHHHHH”, the “soluble on expression in E. coli” value is reported as “not soluble”.

“MSDSKCDSQFYSVQVADSTFTVLKRYQQLKPIGSGAQGIVCAAFDTVLGINVAVKKLSRPFQNQTHAKRAYRELVLLKCVNHKNIISLLNVFTPQKTLEEFQDVYLVMELMDANLCQVIHMELDHERMSYLLYQMLCGIKHLHSAGIIHRDLKPSNIVVKSDCTLKILDFGLARTACTNFMMTPYVVTRYYRAPEVILGMGYKENVDIWSVGCIMGELVKGCVIFQGTDHIDQWNKVIEQLGTPSAEFMKKLQPTVRNYVENRPKYPGIKFEELFPDWIFPSESERDKIKTSQARDLLSKMLVIDPDKRISVDEALRHPYITVWYDPAEAEAPPPQIYDAQLEEREHAIEEWKELIYKEVMDWEERSKNGVVKDQPSDAAVSSNATPSQSSSINDISSMSTEQTLASDTDSSLDASTGPLEGCR”: the “soluble on expression in E. coli” value is recorded as “soluble”.

Turning to “MSDSSHAFSATERAAVYRAIAERRDMRHFSGGSVAPELLARLLEAAHQAPSVGLMQPWRFIRITEPALRRAIHGLVEEERGRTAEALGERSDEFMRLKVEGVLDCAELLVAALMDDRERHVFGRRTLPQMDLASLACAIQNLWLASRAEGLGMGWVSLFDPAALGELLGLPPGSEAVAVLCLGPVAEFYPAPMLALEGWSEPRPLAELVYQNRWGERA”, the “soluble on expression in E. coli” value is listed as “not soluble”.

With “MSDTLRPYKNLFPGIGQRVMIDTSSVVIGDVRLADDVGIWPLVVIRGDVNYVAIGARTNIQDGSVLHVTHKSSSNPHGNPLIIGEDVTVGHKVMLHGCTIGNRVLVGMGSIVLDGAIIEDDVMIGAGSLVPQHKRLESGYLYLGSPVKQIRPLSDAERSGLQYSANNYVKWKDDYLSQDNHIQP”, the “soluble on expression in E. coli” value is reported as “not soluble”.
